US20140004128A1 (AstraZeneca / MedImmune, published 2014)
Changes are numbered by the printed parent chain. Blank lines part the entries; values can stand above or below the binder they belong to.

Legend:
[1] = molecular target: T1, recombinant human IL-18 (human, UniProt Q14116 37-193); experiment: HTRF receptor-ligand competition: human IL-18 with Eu-cryptate IL-18Rα and biotinylated IL-18Rβ
T1 construct: Mostly in-house, E. coli-derived, tag removed by Factor Xa; In some assays labelled with Europium cryptate or biotin on free cysteines; Also used here for endogenous human IL-18 in the PBMC assay; also called huIL-18; Interleukin-18

[2] = molecular target: T2, recombinant Rhesus Macaque IL-18 (Rhesus Macaque, UniProt Q9BGI5 37-193); experiment: HTRF receptor-ligand competition: Rhesus Macaque IL-18 (1.5 nM) with Eu-cryptate human IL-18Rα and biotinylated human IL-18Rβ
T2 construct: Bought; also called Rhesus m; IL-18

[3] = molecular target: T3, recombinant rat IL-18 (rat, UniProt P97636 37-194); experiment: SPR (BIAcore 2000), IgG amine-coupled to CM3 chip
T3 construct: Bought
T3 sequence (looked up): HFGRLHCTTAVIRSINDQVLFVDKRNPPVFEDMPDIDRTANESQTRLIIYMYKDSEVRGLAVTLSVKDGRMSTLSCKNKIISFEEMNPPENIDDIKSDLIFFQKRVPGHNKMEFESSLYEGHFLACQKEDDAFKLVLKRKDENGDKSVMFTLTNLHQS

[4] = molecular target: T4, human IL-1F7/FIL1zeta (human, UniProt Q9NZH6-2 27-192, limits assumed); experiment: SPR (BIAcore 2000), IgG amine-coupled to CM3 chip
T4 construct: Bought
T4 sequence (looked up): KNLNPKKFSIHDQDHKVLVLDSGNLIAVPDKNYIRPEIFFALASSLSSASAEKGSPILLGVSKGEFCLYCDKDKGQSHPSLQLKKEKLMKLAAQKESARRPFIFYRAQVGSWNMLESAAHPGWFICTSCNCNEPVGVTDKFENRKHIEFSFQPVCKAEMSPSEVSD

[5] = molecular target: T5, human IL-1beta (human, UniProt P01584 117-269); experiment: SPR (BIAcore 2000), IgG amine-coupled to CM3 chip
T5 construct: Bought; also called Human IL-1β

[6] = molecular target: T1, recombinant human IL-18; experiment: SPR (BIAcore 2000), IgG amine-coupled to CM3 chip, IL-18 as analyte, 1:1 Langmuir
[7] = molecular target: T1, recombinant human IL-18; experiment: cell-based or functional assay
[8] = molecular target: T1, recombinant human IL-18; experiment: cell-based or functional assay; remark: listed apart in the source
[9] = molecular target: T2, recombinant Rhesus Macaque IL-18; experiment: cell-based or functional assay
[10] = molecular target: T3, recombinant rat IL-18; experiment: SPR, IgG amine-coupled to CM5 chip
[11] = molecular target: T4, human IL-1F7/FIL1zeta; experiment: SPR, IgG amine-coupled to CM5 chip
[12] = molecular target: T5, human IL-1beta; experiment: SPR, IgG amine-coupled to CM5 chip
[13] = molecular target: T6, mouse IL-18 (mouse, UniProt P70380 36-192); experiment: SPR, IgG amine-coupled to CM5 chip
T6 sequence (looked up): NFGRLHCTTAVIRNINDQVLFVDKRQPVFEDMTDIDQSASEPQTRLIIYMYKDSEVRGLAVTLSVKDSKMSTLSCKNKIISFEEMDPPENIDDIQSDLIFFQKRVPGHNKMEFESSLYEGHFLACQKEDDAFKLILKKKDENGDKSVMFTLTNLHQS

[14] = molecular target: T1, recombinant human IL-18; experiment: SPR (BIAcore), IgG amine-coupled to CM3 or CM5 chip, IL-18 as analyte, 1:1 Langmuir
[15] = molecular target: T2, recombinant Rhesus Macaque IL-18; experiment: as above
[16] = molecular target: T7, human IL-18-FH (baculovirus-produced IL-18 containing FLAG and His tags) (human, UniProt Q14116 37-193); experiment: HTRF competition of IL-18BPa-Fc binding to FLAG/His-tagged human IL-18
T7 construct: not shown: N-terminal Flag tag and histidine tag

[17] = molecular target: T1, recombinant human IL-18; experiment: cell-based or functional assay; remark: listed apart in the source
[18] = molecular target: T1, recombinant human IL-18; experiment: cell-based or functional assay; remark: listed apart in the source
[19] = molecular target: T2, recombinant Rhesus Macaque IL-18; experiment: cell-based or functional assay; remark: listed apart in the source
[20] = molecular target: cynomolgus monkey IL-18 (cynomolgus monkey, UniProt A0A2K5TJ84 37-193); experiment: cell-based or functional assay
[21] = molecular target: T1, recombinant human IL-18; experiment: HTRF receptor-ligand competition: human IL-18 with Eu-cryptate IL-18Rα and biotinylated IL-18Rβ; purified scFv

IC50 [1]: 2900 pM
IC50 [2]: 5400 pM
binding result [3]: no binding (tested: 200 nM)
binding result [4]: no binding (tested: 200 nM)
binding result [5]: no binding (tested: 200 nM)
Kd [6]: 9960 pM
koff [6]: 0.00732 s⁻¹
kon [6]: 735000 M⁻¹ s⁻¹
IC50, inhibition of IFNγ release by KG-1 cells stimulated with human IL-18 and TNFα [7]: 258000 pM
B1: Antibody 1 IgG2 (antibody, V domains shown)
VH: QVQLQQSGPRLVKPSQTLSLTCTVSGGSISSGGYYWSWIRQPAGKGLEWIGSIYYSGSTYYNPSLKSRVTISGDTPKNQFSLKLSSVTAADTAVYYCARTPAYDGDARADFFDVWGRGTLVTVSS
VL: DIVMTQSPSTLSASVGDRVTITCRASQGISSWLAWYQQKPGRAPKVLIYKASTLESGVPSRFSGSGSGTDFTLTISSLQPEDFATYYCQQSYSTPWTFGQGTKLEIK
notes: Whole human IgG2 heavy chain and human kappa light chain (vectors pEU9.2 and pEU3.4)

IC50, IFNγ release KG-1 cell assay, human IL-18 [8]: 202 pM
IC50, IFNγ release KG-1 cell assay, Rhesus Macaque IL-18 [9]: 285 pM
binding result [10]: no binding
binding result [11]: no binding
binding result [12]: no binding
binding result [13]: no binding
Kd [14]: 92 pM
koff [14]: 8.16e-05 s⁻¹
kon [14]: 885000 M⁻¹ s⁻¹
Kd [15]: 46 pM
koff [15]: 4.79e-05 s⁻¹
kon [15]: 1.05e+06 M⁻¹ s⁻¹
IC50 [16]: 200 pM
IC50, IFNγ release by human PBMC stimulated with LPS and IL-12 (endogenous IL-18) [17]: 320 pM
B2: Antibody 12 GL IgG2 (antibody, V domains shown)
VH: QVQLQESGPGLVKPSETLSLTCTVSGGSISADGYYWSWIRQPPGKGLEWIGSLYYSGSTYYNPSLKGRVTISGDTSKNQFSLKLSSVTAADTAVYYCARTPAYFGQDRTDFFDVWGRGTLVTVSS
VL: B1 VL with V3Q, R42K, D70E, E81D, Y92H, S93H, T94P
notes: Germlined; whole human IgG2, kappa light chain

KD (pM), Schild analysis in the KG-1 IFNγ release cell assay [18]: 71 pM
KD (pM), Schild analysis in the KG-1 IFNγ release cell assay [19]: 142 pM
IC50, IFNγ release KG-1 cell assay, human IL-18 [8]: 80 pM
IC50, IFNγ release KG-1 cell assay, Rhesus Macaque IL-18 [9]: 461 pM
binding result [10]: no binding
binding result [13]: no binding
IC50, inhibition of IL-18-induced CD11b up-regulation on human neutrophils (flow cytometry) [7]: 2030 pM
IC50, inhibition of IL-18-mediated enhancement of fMLFF-induced ROS production in human neutrophils (flow cytometry) [7]: 200 pM
Kd [14]: 62.9 pM
koff [14]: 2.9e-05 s⁻¹
kon [14]: 460000 M⁻¹ s⁻¹
Kd [15]: 54.7 pM
koff [15]: 3.5e-05 s⁻¹
kon [15]: 630000 M⁻¹ s⁻¹
IC50, IFNγ release by human PBMC stimulated with LPS and IL-12 (endogenous IL-18) [17]: 150 pM
IC50, IFNγ release by cynomolgus monkey PBMC stimulated with LPS and IL-12 (endogenous IL-18) [20]: 280 pM
B3: Antibody 12 GL IgG1TM (antibody, V domains shown)
VH: B2 VH
VL: B1 VL with V3Q, R42K, D70E, E81D, Y92H, S93H, T94P
notes: Human IgG1 (gamma 1 (f)) constant domains with three single amino acid substitutions (TM, Oganesyan et al 2008) and human kappa Km3 light chain constant domain; Expressed in CHO cells; also called germlined Antibody 12 IgG1TM

IC50 [21]: 12000 pM
B4: Antibody 1 scFv (scFv, V domains shown)
VH: B1 VH
VL: B1 VL
notes: also called purified scFv Antibody 1

IC50, IFNγ release KG-1 cell assay, human IL-18 [8]: 444 pM
IC50, IFNγ release KG-1 cell assay, Rhesus Macaque IL-18 [9]: 1520 pM
binding result [10]: no binding
binding result [11]: no binding
binding result [12]: no binding
Kd [14]: 110 pM
koff [14]: 5.49e-05 s⁻¹
kon [14]: 500000 M⁻¹ s⁻¹
Kd [15]: 163 pM
koff [15]: 7.08e-05 s⁻¹
kon [15]: 436000 M⁻¹ s⁻¹
IC50, IFNγ release by human PBMC stimulated with LPS and IL-12 (endogenous IL-18) [17]: 510 pM
B5: Antibody 8 GL IgG2 (antibody, V domains shown)
VH: B2 VH with D32G
VL: B1 VL with V3Q, R42K, D70E, E81D, Y92H, S93H, T94P
notes: as for B2
